The source of these data is patent US20020199219A1 (UNIVERSITY OF CALIFORNIA SAN DIEGO, published 2002).

The assay concerns the target T1, ABH1 polypeptide (Arabidopsis thaliana, UniProt Q9SIU2 1-848).
T1 construct: Tested in a yeast two-hybrid experiment and expressed in yeast cells; also called Arabidopsis CBP80 homolog
T1 sequence: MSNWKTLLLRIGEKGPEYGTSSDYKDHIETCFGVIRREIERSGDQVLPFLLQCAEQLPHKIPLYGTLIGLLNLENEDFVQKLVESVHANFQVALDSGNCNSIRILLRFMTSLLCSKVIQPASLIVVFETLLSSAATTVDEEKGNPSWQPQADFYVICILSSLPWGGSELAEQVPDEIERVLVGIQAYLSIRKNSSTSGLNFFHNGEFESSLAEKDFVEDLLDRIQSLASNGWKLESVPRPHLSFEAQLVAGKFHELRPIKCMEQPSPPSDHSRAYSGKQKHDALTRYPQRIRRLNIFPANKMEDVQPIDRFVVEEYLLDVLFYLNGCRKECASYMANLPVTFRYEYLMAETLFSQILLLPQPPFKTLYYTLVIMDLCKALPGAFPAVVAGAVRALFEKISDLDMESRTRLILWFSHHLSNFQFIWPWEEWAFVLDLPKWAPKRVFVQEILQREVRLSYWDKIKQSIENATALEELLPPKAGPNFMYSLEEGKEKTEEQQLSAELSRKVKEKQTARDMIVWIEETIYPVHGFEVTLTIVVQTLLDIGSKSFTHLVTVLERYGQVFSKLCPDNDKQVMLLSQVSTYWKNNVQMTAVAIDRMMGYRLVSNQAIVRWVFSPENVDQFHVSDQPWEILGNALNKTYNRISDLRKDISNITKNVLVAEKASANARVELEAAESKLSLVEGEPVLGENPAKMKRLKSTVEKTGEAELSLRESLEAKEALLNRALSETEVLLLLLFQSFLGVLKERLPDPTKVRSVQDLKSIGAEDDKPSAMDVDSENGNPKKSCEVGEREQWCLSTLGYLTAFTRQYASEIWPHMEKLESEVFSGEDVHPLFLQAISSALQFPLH
Kind of assay: yeast two-hybrid.

B1: Arabidopsis CBP20 homolog (AtCBP20) (other, UniProt Q9XFD1 1-257, looked up)
chain: MASLFKEQAKLSAYRDRRFSGTQEEFDEALRASTTVYIGNVSFYTTEEQLYELFSRAGEIKKIIMGLDKNTKTPCGFCFVLFYSREDTEDAVKYISGTILDDRPIRVDFDWGFQEGRQWGRGRSGGQVRDEYRTDYDPARGGYGKLVQKELEAQRQLVDYGTGSLGAYPQAAPTNYGNGRRGGGNYGQGGQNRHGRGDYHRKRQRDDDRYGRDNSRRNTDHESRRDTDSDMRPEKNPRFRESGDSDDDGEDDRKRRS
notes: The limits of the construct and the two-hybrid fusion domains are not described
For the molecule B1, the binding result was “binds”.
